Experimental data published in article PMC9461283 (Biosafety and Health, 2022).

B1: human ACE2 ectodomain (ectoACE2), N-terminal 367 aa (domain or fragment)
chain: QSTIEEQAKTFLDKFNHEAEDLFYQSSLASWNYNTNITEENVQNMNNAGDKWSAFLKEQSTLAQMYPLQEIQNLTVKLQLQALQQNGSSVLSEDKSKRLNTILNTMSTIYSTGKVCNPDNPQECLLLEPGLNEIMANSLDYNERLWAWESWRSEVGKQLRPLYEEYVVLKNEMARANHYEDYGDYWRGDYEVNGVDGYDYSRGQLIEDVEHTFEEIKPLYEHLHAYVRAKLMNAYPSYISPIGCLPAHLLGDMWGRFWTNLYSLTVPFGQKPNIDVTDAMVDQAWDAQRIFKEAEKFFVSVGLPNMTQGFWENSMLTDPGNVQKAVCHPTAWDLGKGDFRILMCTKVTMD
B2: African Green monkey (Chlorocebus sabaeus) ACE2 ectodomain (ectoACE2), N-terminal 367 aa (domain or fragment)
chain: QSTIEEQAKTFLDKFNPEAEDLFYQSSLASWNYNTNITEENVQNMNNAGEKWSAFLKEQSTLAQMYPLQAIQNLTVKLQLQALQQNGSSVLSEDKSKRLNTILNTMSTIYSTGKVCNPNNPQECLLLDPGLNEIMEKSLDYNERLWAWEGWRSEVGKQLRPLYEEYVVLKNEMARANHYKDYGDYWRGDYEVNGVDGYDYNRDQLIEDVERTFEEIKPLYEHLHAYVRAKLMNAYPSYISPTGCLPAHLLGDMWGRFWTNLYSLTVPFGQKPNIDVTDAMVNQAWNAQRIFKEAEKFFVSVGLPNMTQGFWENSMLTDPGNVQKVVCHPTAWDLGKGDFRIIMCTKVTMD

Key:
[1] = target: SARS-CoV-2 S receptor-binding domain (RBD) (SARS-CoV-2 (isolate Wuhan-Hu-1), UniProt P0DTC2); assay: SPR
[2] = target: SARS-CoV-2 S receptor-binding domain (RBD) (SARS-CoV-2 (isolate Wuhan-Hu-1), UniProt P0DTC2); assay: SPR; remark: listed apart in the source

Binder	Kd [1] [nM]	Kd [2] [nM]
B1	61.2	
B2		67.6
